From publication PMC11381329 (Nucleic Acids Research, 2024)

Biological target: T1, GST-UTP13^1–320 (human, UniProt Q12788 1-320)
T1 sequence: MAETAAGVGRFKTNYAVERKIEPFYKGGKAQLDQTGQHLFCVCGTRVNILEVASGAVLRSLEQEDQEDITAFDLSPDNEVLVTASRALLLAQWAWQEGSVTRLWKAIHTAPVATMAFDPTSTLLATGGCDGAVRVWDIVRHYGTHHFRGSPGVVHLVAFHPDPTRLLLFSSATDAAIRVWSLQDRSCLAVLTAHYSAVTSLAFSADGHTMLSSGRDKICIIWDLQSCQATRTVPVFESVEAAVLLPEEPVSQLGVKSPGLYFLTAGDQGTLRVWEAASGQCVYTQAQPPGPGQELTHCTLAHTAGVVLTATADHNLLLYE
Test: pull-down

B1: HIS-UTP3^1–319 (domain or fragment)
chain: MVGRSRRRGAAKWAAVRAKAGPTLTDENGDDLGLPPSPGDTSYYQDQVDDFHEARSRAALAKGWNEVQSGDEEDGEEEEEEVLALDMDDEDDEDGGNAGEEEEEENADDDGGSSVQSEAEASVDPSLSWGQRKKLYYDTDYGSKSRGRQSQQEAEEEEREEEEEAQIIQRRLAQALQEDDFGVAWVEAFAKPVPQVDEAETRVVKDLAKVSVKEKLKMLRKESPELLELIEDLKVKLTEVKDELEPLLELVEQGIIPPGKGSQYLRTKYNLYLNYCSNISFYLILKARRVPAHGHPVIERLVTYRNLINKLSVVDQKLS
binding result: binds
